The text below walks through data of patent publication US20170190753A1 (LABORATOIRE FRANCAIS DU FRACTIONNEMENT ET DES …, published 2017).

The target of this assay is C3 convertase complex (UniProt P01024 23-1663; P00751 260-764). Description: cell-based or functional assay.
For C3 convertase activity % of the control in this document: test concentration or dose not given here.

Chain of C3 convertase complex (P01024 23-1663, chain 1 of 2): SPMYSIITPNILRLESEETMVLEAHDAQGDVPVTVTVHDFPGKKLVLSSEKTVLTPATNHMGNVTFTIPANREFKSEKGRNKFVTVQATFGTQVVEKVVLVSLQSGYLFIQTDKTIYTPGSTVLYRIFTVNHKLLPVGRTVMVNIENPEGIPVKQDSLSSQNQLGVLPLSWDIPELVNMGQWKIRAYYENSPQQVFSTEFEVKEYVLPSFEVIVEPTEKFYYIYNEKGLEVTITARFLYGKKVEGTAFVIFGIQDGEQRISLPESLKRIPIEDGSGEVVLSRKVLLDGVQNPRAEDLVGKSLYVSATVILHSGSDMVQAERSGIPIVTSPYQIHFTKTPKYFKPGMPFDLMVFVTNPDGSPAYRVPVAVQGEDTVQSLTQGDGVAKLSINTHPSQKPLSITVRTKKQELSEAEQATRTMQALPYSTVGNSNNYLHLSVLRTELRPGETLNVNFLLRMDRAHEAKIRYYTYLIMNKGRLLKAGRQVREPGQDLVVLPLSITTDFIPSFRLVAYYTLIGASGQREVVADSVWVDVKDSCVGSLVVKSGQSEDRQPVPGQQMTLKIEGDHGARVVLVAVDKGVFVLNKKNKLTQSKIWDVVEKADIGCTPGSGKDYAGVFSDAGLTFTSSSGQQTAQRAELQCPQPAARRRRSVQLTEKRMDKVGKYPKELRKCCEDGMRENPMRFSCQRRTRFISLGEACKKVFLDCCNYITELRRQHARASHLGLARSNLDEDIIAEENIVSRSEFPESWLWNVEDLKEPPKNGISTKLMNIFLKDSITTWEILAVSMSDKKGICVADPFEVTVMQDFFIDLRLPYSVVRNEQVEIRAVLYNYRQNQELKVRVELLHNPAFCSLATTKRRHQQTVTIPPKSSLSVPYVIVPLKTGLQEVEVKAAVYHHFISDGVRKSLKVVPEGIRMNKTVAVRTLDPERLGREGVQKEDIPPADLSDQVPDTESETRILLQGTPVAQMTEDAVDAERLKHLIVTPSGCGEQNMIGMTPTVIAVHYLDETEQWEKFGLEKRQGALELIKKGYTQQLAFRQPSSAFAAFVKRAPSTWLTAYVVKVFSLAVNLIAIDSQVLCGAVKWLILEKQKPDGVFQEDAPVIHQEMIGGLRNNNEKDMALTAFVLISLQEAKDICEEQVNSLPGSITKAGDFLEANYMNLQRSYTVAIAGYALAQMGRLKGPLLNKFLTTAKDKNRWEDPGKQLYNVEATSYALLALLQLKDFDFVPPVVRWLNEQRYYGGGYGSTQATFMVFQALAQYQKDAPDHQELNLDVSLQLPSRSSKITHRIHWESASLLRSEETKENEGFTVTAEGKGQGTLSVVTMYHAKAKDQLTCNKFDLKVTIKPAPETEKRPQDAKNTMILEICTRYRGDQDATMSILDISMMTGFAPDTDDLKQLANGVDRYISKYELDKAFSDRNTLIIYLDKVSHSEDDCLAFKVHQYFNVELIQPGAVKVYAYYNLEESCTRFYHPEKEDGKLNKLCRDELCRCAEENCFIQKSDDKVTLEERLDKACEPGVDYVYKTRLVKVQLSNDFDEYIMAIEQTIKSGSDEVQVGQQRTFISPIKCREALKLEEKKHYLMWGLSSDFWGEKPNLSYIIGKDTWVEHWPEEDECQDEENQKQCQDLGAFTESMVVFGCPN
Chain of C3 convertase complex (P00751 260-764, chain 2 of 2): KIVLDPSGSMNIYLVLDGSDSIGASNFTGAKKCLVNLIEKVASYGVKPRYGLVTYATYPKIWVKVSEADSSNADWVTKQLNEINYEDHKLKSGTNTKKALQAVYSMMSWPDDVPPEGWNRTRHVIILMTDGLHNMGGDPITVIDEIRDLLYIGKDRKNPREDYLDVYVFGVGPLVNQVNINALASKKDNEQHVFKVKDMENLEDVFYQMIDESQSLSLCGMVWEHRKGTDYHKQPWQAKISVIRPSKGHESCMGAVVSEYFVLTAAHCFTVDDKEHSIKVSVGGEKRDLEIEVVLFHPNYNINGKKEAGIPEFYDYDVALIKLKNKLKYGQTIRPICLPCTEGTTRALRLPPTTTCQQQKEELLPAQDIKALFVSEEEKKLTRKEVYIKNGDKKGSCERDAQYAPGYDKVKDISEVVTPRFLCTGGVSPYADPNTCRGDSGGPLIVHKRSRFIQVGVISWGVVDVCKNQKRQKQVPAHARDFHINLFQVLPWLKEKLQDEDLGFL

B1: pCEP4-1NT4-10CT20 (other)
chain: EDCNELPPRRNTEILTGSWSDQTYPEGTQAIYKCRPGYRSLGNVIMVCRKGEWVALNPLRKCQKRPCGHPGDTPFGTFTLTGGNVFEYGVKAVYTCNEGYQLLGEINYRECDTDGWTNDIPICEVVKCLPVTAPENGKIVSSAMEPDREYHFGQAVRFVCNSGYKIEGDEEMHCSDDGFWSKEKPKCVEISCKSPDVINGSPISQKIIYKENERFQYKCNMGYEYSERGDAVCTESGWRPLPSCEEKSGASGCELPKIDVHLVPDRKKDQYKVGEVLKFSCKPGFTIVGPNSVQCYHFGLSPDLPICKEQVQSCGPPPELLNGNVKEKTKEEYGHSEVVEYYCNPRFLMKGPNKIQCVDGEWTTLPVCIVEESTCGDIPELEHGWAQLSSPPYYYGDSVEFNCSESFTMIGHRSITCIHGVWTQLPQCVAIDKLKKCKSSNLIILEEHLKNKKEFDHNSNIRYRCRGKEGWIHTVCINGRWDPEVNCSMAQIQLCPPPPQIPNSHNMTTTLNYRDGEKVSVLCQENYLIQEGEEITCKDGRWQSIPLCVEKIPCSQPPQIEHGTINSSRSSQESYAHGTKLSYTCEGGFRISEENETTCYMGKWSSPPQCEGLPCKSPPEISHGVVAHMSDSYQYGEEVTYKCFEGFGIDGPAIAKCLGEKWSHPPSCIKTDCLSLPSFENAIPMGEKKDVYKAGEQVTYTCATYYKMDGASNVTCINSRWTGRPTCRDTSCVNPPTVQNAYIVSRQMSKYPSGERVRYQCRSPYEMFGDEEVMCLNGNWTEPPQCKDSTGKCGPPPPIDNGDITSFPLSVYAPASSVEYQCQNLYQLEGNKRITCRNGQWSEPPKCLHPCVISREIMENYNIALRWTAKQKLYSRTGESVEFVCKRGYRLSSRSHTLRTTCWDGKLEYPTCAKRGGSGHHHHHH
On to B1, for which the “C3 convertase activity % of the control” value is 38 % of the control and the “C3 convertase activity IC50” value was found to be 0.244 µg/mL.

B2: pCEP4-1NT9-12CT20 (other)
chain: EDCNELPPRRNTEILTGSWSDQTYPEGTQAIYKCRPGYRSLGNVIMVCRKGEWVALNPLRKCQKRPCGHPGDTPFGTFTLTGGNVFEYGVKAVYTCNEGYQLLGEINYRECDTDGWTNDIPICEVVKCLPVTAPENGKIVSSAMEPDREYHFGQAVRFVCNSGYKIEGDEEMHCSDDGFWSKEKPKCVEISCKSPDVINGSPISQKIIYKENERFQYKCNMGYEYSERGDAVCTESGWRPLPSCEEKSCDNPYIPNGDYSPLRIKHRTGDEITYQCRNGFYPATRGNTAKCTSTGWIPAPRCTLKPCDYPDIKHGGLYHENMRRPYFPVAVGKYYSYYCDEHFETPSGSYWDHIHCTQDGWSPAVPCLRKCYFPYLENGYNQNHGRKFVQGKSIDVACHPGYALPKAQTTVTCMENGWSPTPRCIRVKTCSKSSIDIENGFISESQYTYALKEKAKYQCKLGYVTADGETSGSITCGKDGWSAQPTCIKSCDIPVFMNARTKNDFTWFKLNDTLDYECHDGYESNTGSTTGSIVCGYNGWSDLPICYEREGASGCGDIPELEHGWAQLSSPPYYYGDSVEFNCSESFTMIGHRSITCIHGVWTQLPQCVAIDKLKKCKSSNLIILEEHLKNKKEFDHNSNIRYRCRGKEGWIHTVCINGRWDPEVNCSMAQIQLCPPPPQIPNSHNMTTTLNYRDGEKVSVLCQENYLIQEGEEITCKDGRWQSIPLCVEKIPCSQPPQIEHGTINSSRSSQESYAHGTKLSYTCEGGFRISEENETTCYMGKWSSPPQCEGLPCKSPPEISHGVVAHMSDSYQYGEEVTYKCFEGFGIDGPAIAKCLGEKWSHPPSCIKTDCLSLPSFENAIPMGEKKDVYKAGEQVTYTCATYYKMDGASNVTCINSRWTGRPTCRDTSCVNPPTVQNAYIVSRQMSKYPSGERVRYQCRSPYEMFGDEEVMCLNGNWTEPPQCKDSTGKCGPPPPIDNGDITSFPLSVYAPASSVEYQCQNLYQLEGNKRITCRNGQWSEPPKCLHPCVISREIMENYNIALRWTAKQKLYSRTGESVEFVCKRGYRLSSRSHTLRTTCWDGKLEYPTCAKRGGSGHHHHHH
Turning to B2, the “C3 convertase activity % of the control” value was 30 % of the control and the “C3 convertase activity IC50” value was found to be 0.307 µg/mL.

B3: pCEP4-1NT13-14CT20 (other)
chain: EDCNELPPRRNTEILTGSWSDQTYPEGTQAIYKCRPGYRSLGNVIMVCRKGEWVALNPLRKCQKRPCGHPGDTPFGTFTLTGGNVFEYGVKAVYTCNEGYQLLGEINYRECDTDGWTNDIPICEVVKCLPVTAPENGKIVSSAMEPDREYHFGQAVRFVCNSGYKIEGDEEMHCSDDGFWSKEKPKCVEISCKSPDVINGSPISQKIIYKENERFQYKCNMGYEYSERGDAVCTESGWRPLPSCEEKSCDNPYIPNGDYSPLRIKHRTGDEITYQCRNGFYPATRGNTAKCTSTGWIPAPRCTLKPCDYPDIKHGGLYHENMRRPYFPVAVGKYYSYYCDEHFETPSGSYWDHIHCTQDGWSPAVPCLRKCYFPYLENGYNQNHGRKFVQGKSIDVACHPGYALPKAQTTVTCMENGWSPTPRCIRVKTCSKSSIDIENGFISESQYTYALKEKAKYQCKLGYVTADGETSGSITCGKDGWSAQPTCIKSCDIPVFMNARTKNDFTWFKLNDTLDYECHDGYESNTGSTTGSIVCGYNGWSDLPICYERECELPKIDVHLVPDRKKDQYKVGEVLKFSCKPGFTIVGPNSVQCYHFGLSPDLPICKEQVQSCGPPPELLNGNVKEKTKEEYGHSEVVEYYCNPRFLMKGPNKIQCVDGEWTTLPVCIVEESTCGDIPELEHGWAQLSSPPYYYGDSVEFNCSESFTMIGHRSITCIHGVWTQLPQCVAIDKLKKCKSSNLIILEEHLKNKKEFDHNSNIRYRCRGKEGWIHTVCINGRWDPEVNCSMAQIQLGASGCPPPPQIPNSHNMTTTLNYRDGEKVSVLCQENYLIQEGEEITCKDGRWQSIPLCVEKIPCSQPPQIEHGTINSSRSSQESYAHGTKLSYTCEGGFRISEENETTCYMGKWSSPPQCEGLPCKSPPEISHGVVAHMSDSYQYGEEVTYKCFEGFGIDGPAIAKCLGEKWSHPPSCIKTDCLSLPSFENAIPMGEKKDVYKAGEQVTYTCATYYKMDGASNVTCINSRWTGRPTCRDTSCVNPPTVQNAYIVSRQMSKYPSGERVRYQCRSPYEMFGDEEVMCLNGNWTEPPQCKDSTGKCGPPPPIDNGDITSFPLSVYAPASSVEYQCQNLYQLEGNKRITCRNGQWSEPPKCLHPCVISREIMENYNIALRWTAKQKLYSRTGESVEFVCKRGYRLSSRSHTLRTTCWDGKLEYPTCAKRGGSGHHHHHH
As to B3, the “C3 convertase activity % of the control” value was 45 % of the control and the “C3 convertase activity IC50” value was 0.776 µg/mL.

B4: pCEP4-1NT4-8CT20 (other)
chain: EDCNELPPRRNTEILTGSWSDQTYPEGTQAIYKCRPGYRSLGNVIMVCRKGEWVALNPLRKCQKRPCGHPGDTPFGTFTLTGGNVFEYGVKAVYTCNEGYQLLGEINYRECDTDGWTNDIPICEVVKCLPVTAPENGKIVSSAMEPDREYHFGQAVRFVCNSGYKIEGDEEMHCSDDGFWSKEKPKCVEISCKSPDVINGSPISQKIIYKENERFQYKCNMGYEYSERGDAVCTESGWRPLPSCEEKSGASGCSKSSIDIENGFISESQYTYALKEKAKYQCKLGYVTADGETSGSITCGKDGWSAQPTCIKSCDIPVFMNARTKNDFTWFKLNDTLDYECHDGYESNTGSTTGSIVCGYNGWSDLPICYERECELPKIDVHLVPDRKKDQYKVGEVLKFSCKPGFTIVGPNSVQCYHFGLSPDLPICKEQVQSCGPPPELLNGNVKEKTKEEYGHSEVVEYYCNPRFLMKGPNKIQCVDGEWTTLPVCIVEESTCGDIPELEHGWAQLSSPPYYYGDSVEFNCSESFTMIGHRSITCIHGVWTQLPQCVAIDKLKKCKSSNLIILEEHLKNKKEFDHNSNIRYRCRGKEGWIHTVCINGRWDPEVNCSMAQIQLCPPPPQIPNSHNMTTTLNYRDGEKVSVLCQENYLIQEGEEITCKDGRWQSIPLCVEKIPCSQPPQIEHGTINSSRSSQESYAHGTKLSYTCEGGFRISEENETTCYMGKWSSPPQCEGLPCKSPPEISHGVVAHMSDSYQYGEEVTYKCFEGFGIDGPAIAKCLGEKWSHPPSCIKTDCLSLPSFENAIPMGEKKDVYKAGEQVTYTCATYYKMDGASNVTCINSRWTGRPTCRDTSCVNPPTVQNAYIVSRQMSKYPSGERVRYQCRSPYEMFGDEEVMCLNGNWTEPPQCKDSTGKCGPPPPIDNGDITSFPLSVYAPASSVEYQCQNLYQLEGNKRITCRNGQWSEPPKCLHPCVISREIMENYNIALRWTAKQKLYSRTGESVEFVCKRGYRLSSRSHTLRTTCWDGKLEYPTCAKRGGSGHHHHHH
For the molecule B4, the “C3 convertase activity % of the control” value is 42 % of the control and the “C3 convertase activity IC50” value was found to be 0.228 µg/mL.

B5: pCEP4-1NT7-15CT20 (other)
chain: EDCNELPPRRNTEILTGSWSDQTYPEGTQAIYKCRPGYRSLGNVIMVCRKGEWVALNPLRKCQKRPCGHPGDTPFGTFTLTGGNVFEYGVKAVYTCNEGYQLLGEINYRECDTDGWTNDIPICEVVKCLPVTAPENGKIVSSAMEPDREYHFGQAVRFVCNSGYKIEGDEEMHCSDDGFWSKEKPKCVEISCKSPDVINGSPISQKIIYKENERFQYKCNMGYEYSERGDAVCTESGWRPLPSCEEKSCDNPYIPNGDYSPLRIKHRTGDEITYQCRNGFYPATRGNTAKCTSTGWIPAPRCTLKPCDYPDIKHGGLYHENMRRPYFPVAVGKYYSYYCDEHFETPSGSYWDHIHCTQDGWSPAVPCLRKCYFPYLENGYNQNYGRKFVQGKSIDVACHPGYALPKAQTTVTCMENGWSPTPRCIRVKTGASGCSQPPQIEHGTINSSRSSQESYAHGTKLSYTCEGGFRISEENETTCYMGKWSSPPQCEGLPCKSPPEISHGVVAHMSDSYQYGEEVTYKCFEGFGIDGPAIAKCLGEKWSHPPSCIKTDCLSLPSFENAIPMGEKKDVYKAGEQVTYTCATYYKMDGASNVTCINSRWTGRPTCRDTSCVNPPTVQNAYIVSRQMSKYPSGERVRYQCRSPYEMFGDEEVMCLNGNWTEPPQCKDSTGKCGPPPPIDNGDITSFPLSVYAPASSVEYQCQNLYQLEGNKRITCRNGQWSEPPKCLHPCVISREIMENYNIALRWTAKQKLYSRTGESVEFVCKRGYRLSSRSHTLRTTCWDGKLEYPTCAKRGGSGHHHHHH
In the case of B5, the “C3 convertase activity % of the control” value is 56 % of the control and the “C3 convertase activity IC50” value amounted to 0.639 µg/mL.

B6: pCEP4-1NT9-19CT20 (other)
chain: EDCNELPPRRNTEILTGSWSDQTYPEGTQAIYKCRPGYRSLGNVIMVCRKGEWVALNPLRKCQKRPCGHPGDTPFGTFTLTGGNVFEYGVKAVYTCNEGYQLLGEINYRECDTDGWTNDIPICEVVKCLPVTAPENGKIVSSAMEPDREYHFGQAVRFVCNSGYKIEGDEEMHCSDDGFWSKEKPKCVEISCKSPDVINGSPISQKIIYKENERFQYKCNMGYEYSERGDAVCTESGWRPLPSCEEKSCDNPYIPNGDYSPLRIKHRTGDEITYQCRNGFYPATRGNTAKCTSTGWIPAPRCTLKPCDYPDIKHGGLYHENMRRPYFPVAVGKYYSYYCDEHFETPSGSYWDHIHCTQDGWSPAVPCLRKCYFPYLENGYNQNYGRKFVQGKSIDVACHPGYALPKAQTTVTCMENGWSPTPRCIRVKTCSKSSIDIENGFISESQYTYALKEKAKYQCKLGYVTADGETSGSITCGKDGWSAQPTCIKSCDIPVFMNARTKNDFTWFKLNDTLDYECHDGYESNTGSTTGSIVCGYNGWSDLPICYEREGASGCGPPPPIDNGDITSFPLSVYAPASSVEYQCQNLYQLEGNKRITCRNGQWSEPPKCLHPCVISREIMENYNIALRWTAKQKLYSRTGESVEFVCKRGYRLSSRSHTLRTTCWDGKLEYPTCAKRGGSGHHHHHH
On to B6, for which the “C3 convertase activity % of the control” value was 49 % of the control and the “C3 convertase activity IC50” value amounted to 0.217 µg/mL.
